Publication PMC7856178 (Archives of biochemistry and biophysics, 2020)
Like-named read-outs stand apart in the source and are kept apart here.

Legend:
Assay in all cases: FRET or BRET
FRET or BRET [1] = target: the molecule itself
FRET or BRET [2] = target: the molecule itself; remark: listed apart in the source
FRET or BRET [3] = target: the molecule itself; remark: listed apart in the source

B1: CYP2E1 labeled with BODIPY-618 maleimide (enzyme, human, UniProt P05181 1-493, looked up)
chain: MSSMWRQVHSSWNLPPGPFPLPIIGNLFQLELKNIPKSFTRLAQRFGPVFTLYVGSQRMVVMHGYKAVKEALLDYKDEFSGRGDLPAFHAHRDRGIIFNNGPTWKDIRRFSLTTLRNYGMGKQGNESRIQREAHFLLEALRKTQGQPFDPTFLIGCAPCNVIADILFRKHFDYNDEKFLRLMYLFNENFHLLSTPWLQLYNNFPSFLHYLPGSHRKVIKNVAEVKEYVSERVKEHHQSLDPNCPRDLTDCLLVEMEKEKHSAERLYTMDGITVTVADLFFAGTETTSTTLRYGLLILMKYPEIEEKLHEEIDRVIGPSRIPAIKDRQEMPYMDAVVHEIQRFITLVPSNLPHEATRDTIFRGYLIPKGTVVVPTLDSVLYDNQEFPDPEKFKPEHFLNENGKFKYSDYFKPFSTGKRVCAGEGLARMELFLLLCAILQHFNLKPLVDPKDIDLSPIHIGFGCIPPRYKLCVIPRS
modifications: BODIPY-618 maleimide label, 2:1 label to protein ratio (labelled residues not stated)
For B1, the “(Lipid/CYP2E1)50%” value (FRET or BRET [1]) was 604 molar ratio, the “(Lipid/CYP2E1)50%” value (FRET or BRET [2]) was 176 molar ratio and the “(Lipid/CYP2E1)50%” value (FRET or BRET [3]) was 14400 molar ratio.
